This is an account of results in patent US20260242419A1, “A CYCLIC PEPTIDE FOR TRAPPING INTERLEUKIN-1 BETA” (Merck Sharp & Dohme LLC, priority 2023, published 2026).

Starred links: 1 amine or outer side, 2 acyl side, 3 side chain; linkers in the order of their positions; H or OH if unused. Non-standard residues stand in square brackets, D forms with d. Primed or numbered codes have the meaning given here. AEF4AcPip4c = (S)-3-(4-(2-(1-acetylpiperidine-4-carboxamido)ethoxy)phenyl)-2-aminopropanoic acid, CC(=O)N1CCC(C(=O)NCCOc2ccc(C[C@H](N[*:1])C(=O)[*:2])cc2)CC1; AEFPyrzCO = (S)-2-amino-3-(4-(2-(pyrazine-2-carboxamido)ethoxy)phenyl)propanoic acid, O=C(NCCOc1ccc(C[C@H](N[*:1])C(=O)[*:2])cc1)c1cnccn1; AEFcHex = (S)-2-amino-3-(4-(2-(cyclohexanecarboxamido)ethoxy)phenyl)propanoic acid, O=C(NCCOc1ccc(C[C@H](N[*:1])C(=O)[*:2])cc1)C1CCCCC1; AEFPiv = (S)-2-amino-3-(4-(2-pivalamidoethoxy)phenyl)propanoic acid, CC(C)(C)C(=O)NCCOc1ccc(C[C@H](N[*:1])C(=O)[*:2])cc1; dProc3CH24Pal = (2R,3S)-3-(4-pyridylmethyl)pyrrolidine-2-carboxylic acid, O=C([C@H]1[C@@H](Cc2ccncc2)CCN1[*:1])[*:2]; Phe4Pyrim = (S)-2-amino-3-(4-(pyrimidin-5-yl)phenyl)propanoic acid, O=C([C@H](Cc1ccc(-c2cncnc2)cc1)N[*:1])[*:2]; Bip4CONMe2″ = 4'-(dimethylcarbamoyl)biphenylalanine, CN(C)C(=O)c1ccc(-c2ccc(C[C@H](N[*:1])C(=O)[*:2])cc2)cc1; OrnMe3 = ornithine with side-chain trimethylammonium, C[N+](C)(C)CCC[C@H](N[*:1])C(=O)[*:2]; 4PyrimAla = (2S)-2-amino-3-pyrimidin-4-yl-propanoic acid, O=C([C@H](Cc1ccncn1)N[*:1])[*:2]; Trp(4-Cl)(βS-Me) = C[C@@H](c1c[nH]c2cccc(Cl)c12)[C@H](N)C(=O)O; dPro(4R-(4-pyridylmethyl)) = O=C(O)[C@H]1C[C@@H](Cc2ccncc2)CN1; Trp(βS-Me,4-F) = C[C@@H](c1c[nH]c2cccc(F)c12)[C@H](N)C(=O)O; Bip(4'-CONH2) = NC(=O)c1ccc(-c2ccc(C[C@H](N)C(=O)O)cc2)cc1; Bip(4'-COOH) = N[C@@H](Cc1ccc(-c2ccc(C(=O)O)cc2)cc1)C(=O)O; Ala(1-bicyclo(1.1.1)pentyl) = N[C@@H](CC12CC(C1)C2)C(=O)O; Phe(4-(4-pyridyl)) = N[C@@H](Cc1ccc(-c2ccncc2)cc1)C(=O)O; dPro(4R-Bzl(4-F)) = O=C(O)[C@H]1C[C@@H](Cc2ccc(F)cc2)CN1; dPro(3S-(4-F-Bn)) = O=C(O)[C@@H]1NCC[C@@H]1Cc1ccc(F)cc1; 1Nal(3S-Me) = C[C@@H](c1cccc2ccccc12)[C@H](N)C(=O)O; Ala(morpholin-4-yl) = N[C@@H](CN1CCOCC1)C(=O)O; Ala(piperazin-1-yl) = N[C@@H](CN1CCNCC1)C(=O)O; Ala(pyrimidin-5-yl) = N[C@@H](Cc1cncnc1)C(=O)O; Phe(4-COOH) = N[C@@H](Cc1ccc(C(=O)O)cc1)C(=O)O; Bip = N[C@@H](Cc1ccc(-c2ccccc2)cc1)C(=O)O; Lys(Me3) = C[N+](C)(C)CCCC[C@H](N)C(=O)O; Phe(4-Br) = N[C@@H](Cc1ccc(Br)cc1)C(=O)O; Pro(cis-4-F) = O=C(O)[C@@H]1C[C@H](F)CN1; Ala(4-THP) = N[C@@H](CC1CCOCC1)C(=O)O; d(αMeD) = C[C@@](N)(CC(=O)O)C(=O)O; 4Pal = N[C@@H](Cc1ccncc1)C(=O)O; aThr = C[C@H](O)[C@H](N)C(=O)O; Dab = NCC[C@H](N)C(=O)O; Aib = CC(C)(N)C(=O)O

Sequences and labels used below:
B1: SEQ ID NO 303 (peptide)
peptide: cyclo([AEFPyrzCO][4Pal][Phe(4-COOH)]G[Pro(cis-4-F)][Trp(βS-Me,4-F)][Aib]SW[Aib][Ala(pyrimidin-5-yl)]Q[Dab]G[dPro(4R-(4-pyridylmethyl))])
modifications: ring closure inferred; not fully specified (N-terminus); printed as cyclic, AEFPyrzCO-4Pal-Phe4COOH-G-Proc4F-SbMeW4F-Aib-S-W-Aib-PyrimAla-Q-Dab-G-dProc4CH24Pal
B2: SEQ ID NO 302 (peptide)
peptide: cyclo([AEF4AcPip4c][4Pal][Phe(4-COOH)]G[Pro(cis-4-F)][Trp(βS-Me,4-F)][Aib]SW[Aib][Ala(pyrimidin-5-yl)]Q[Dab]G[dPro(4R-(4-pyridylmethyl))])
modifications: ring closure inferred; not fully specified (N-terminus); printed as cyclic, AEF4AcPip4c-4Pal-Phe4COOH-G-Proc4F-SbMeW4F-Aib-S-W-Aib-PyrimAla-Q-Dab-G-dProc4CH24Pal
B3: SEQ ID NO 296 (peptide)
peptide: cyclo([Bip(4'-CONH2)][4Pal][Phe(4-COOH)]G[Pro(cis-4-F)][Trp(βS-Me,4-F)][Aib]SW[d(αMeD)][Ala(4-THP)]Q[Dab]G[dPro(4R-(4-pyridylmethyl))])
modifications: ring closure inferred; not fully specified (N-terminus); printed as cyclic, Bip4CONH2-4Pal-Phe4COOH-G-Proc4F-SbMeW4F-Aib-S-W-daMeD-AlaTHP4-Q-Dab-G-dProc4CH24Pal
B4: SEQ ID NO 292 (peptide)
peptide: cyclo([Bip][4Pal][Phe(4-COOH)]G[Pro(cis-4-F)][Trp(4-Cl)(βS-Me)][Aib]SW[d(αMeD)][Ala(pyrimidin-5-yl)]Q[Dab]G[dPro(4R-(4-pyridylmethyl))])
modifications: ring closure inferred; not fully specified (N-terminus); printed as cyclic, Bip-4Pal-Phe4COOH-G-Proc4F-SbMeW4Cl-Aib-S-W-daMeD-PyrimAla-Q-Dab-G-dProc4CH24Pal
B5: SEQ ID NO 294 (peptide)
peptide: cyclo([Bip][4Pal][Phe(4-COOH)]G[Pro(cis-4-F)][Trp(βS-Me,4-F)][Aib]SW[d(αMeD)][Ala(4-THP)]Q[Dab]G[dPro(4R-(4-pyridylmethyl))])
modifications: ring closure inferred; not fully specified (N-terminus); printed as cyclic, Bip-4Pal-Phe4COOH-G-Proc4F-SbMeW4F-Aib-S-W-daMeD-AlaTHP4-Q-Dab-G-dProc4CH24Pal
B6: SEQ ID NO 297 (peptide)
peptide: cyclo([Bip(4'-COOH)][4Pal][Phe(4-COOH)]G[Pro(cis-4-F)][Trp(βS-Me,4-F)][Aib]SW[Aib][OrnMe3]Q[Dab]G[dPro(4R-Bzl(4-F))])
modifications: ring closure inferred; not fully specified (N-terminus); printed as cyclic, Bip4CO2H-4Pal-Phe4COOH-G-Proc4F-sbMeW4F-Aib-S-W-Aib-OrnMe3-Q-Dab-G-dProc4Bn4F
B7: SEQ ID NO 293 (peptide)
peptide: cyclo([Bip][4Pal][Phe(4-COOH)]G[Pro(cis-4-F)][Trp(βS-Me,4-F)][Aib]SW[d(αMeD)][aThr]Q[Dab]G[dPro(4R-(4-pyridylmethyl))])
modifications: ring closure inferred; not fully specified (N-terminus); printed as cyclic, Bip-4Pal-Phe4COOH-G-Proc4F-SbMeW4F-Aib-S-W-daMeD-alT-Q-Dab-G-dProc4CH24Pal
B8: SEQ ID NO 299 (peptide)
peptide: cyclo([Phe(4-Br)][4Pal][Phe(4-COOH)]G[Pro(cis-4-F)][Trp(βS-Me,4-F)][Aib]SW[d(αMeD)][Ala(pyrimidin-5-yl)]Q[Dab]G[dPro(3S-(4-F-Bn))])
modifications: ring closure inferred; not fully specified (N-terminus); printed as cyclic, Phe4Br-4Pal-Phe4COOH-G-Proc4F-SbMeW4F-Aib-S-W-daMeD-PyrimAla-Q-Dab-G-dProc3Bn4F
B9: SEQ ID NO 295 (peptide)
peptide: cyclo([Bip4CONMe2″][4Pal][Phe(4-COOH)]G[Pro(cis-4-F)][Trp(βS-Me,4-F)][Aib]SW[d(αMeD)][Ala(4-THP)]Q[Dab]G[dPro(4R-(4-pyridylmethyl))])
modifications: ring closure inferred; not fully specified (N-terminus); printed as cyclic, Bip4CONMe2-4Pal-Phe4COOH-G-Proc4F-SbMeW4F-Aib-S-W-daMeD-AlaTHP4-Q-Dab-G-dProc4CH24Pal
B10: SEQ ID NO 298 (peptide)
peptide: cyclo([Bip(4'-COOH)][4Pal][Phe(4-COOH)]G[Pro(cis-4-F)][Trp(βS-Me,4-F)][Aib]SW[Aib][Lys(Me3)]Q[Dab]G[dPro(4R-Bzl(4-F))])
modifications: ring closure inferred; not fully specified (N-terminus); printed as cyclic, Bip4CO2H-4Pal-Phe4COOH-G-Proc4F-sbMeW4F-Aib-S-W-Aib-LysMe3-Q-Dab-G-dProc4Bn4F

The assay concerns the target Recombinant human IL-1β (BioLegend 579404) (human, UniProt P01584 117-269). Kind of assay: cell-based or functional assay.
With cyclo([Bip(4'-COOH)][4Pal][Phe(4-COOH)]G[Pro(cis-4-F)][Trp(βS-Me,4-F)][Aib]SW[d(αMeD)][Ala(piperazin-1-yl)]Q[Dab]G[dPro(3S-(4-F-Bn))]) (ring closure inferred) [SEQ ID NO 287], the “MRC5 IC50” value was 0.011 nM.
As for B1, the figure is 0.016 nM; as for cyclo([Bip(4'-COOH)][Ala(1-bicyclo(1.1.1)pentyl)][Phe(4-COOH)]G[Pro(cis-4-F)][Trp(βS-Me,4-F)][Aib]SW[d(αMeD)][4PyrimAla]Q[Dab]G[dPro(4R-(4-pyridylmethyl))]) (ring closure inferred) [SEQ ID NO 285], 0.013 nM; as for cyclo([Bip][4Pal][Phe(4-COOH)]G[Pro(cis-4-F)][Trp(4-Cl)(βS-Me)][Aib]SW[d(αMeD)][aThr]Q[Dab]G[dPro(4R-(4-pyridylmethyl))]) (ring closure inferred) [SEQ ID NO 289], 0.015 nM.
With B2, the “MRC5 IC50” value is 0.017 nM.
As for cyclo([AEFPiv][4Pal][Phe(4-COOH)]G[Pro(cis-4-F)][Trp(βS-Me,4-F)][Aib]SW[Aib][Ala(pyrimidin-5-yl)]Q[Dab]G[dPro(4R-(4-pyridylmethyl))]) (ring closure inferred; not fully specified (N-terminus)) [SEQ ID NO 300], the figure is 0.013 nM; as for cyclo([AEFcHex][4Pal][Phe(4-COOH)]G[Pro(cis-4-F)][Trp(βS-Me,4-F)][Aib]SW[Aib][Ala(pyrimidin-5-yl)]Q[Dab]G[dPro(4R-(4-pyridylmethyl))]) (ring closure inferred; not fully specified (N-terminus)) [SEQ ID NO 301], 0.017 nM.
For cyclo([Bip(4'-COOH)][4Pal][Phe(4-COOH)]G[Pro(cis-4-F)][Trp(βS-Me,4-F)][Aib]SW[d(αMeD)][Ala(morpholin-4-yl)]Q[Dab]G[dPro(3S-(4-F-Bn))]) (ring closure inferred) [SEQ ID NO 286] the value was 0.01 nM; for cyclo([Bip][4Pal][Phe(4-COOH)]G[Pro(cis-4-F)][1Nal(3S-Me)][Aib]SW[d(αMeD)][aThr]Q[Dab]G[dPro(4R-(4-pyridylmethyl))]) (ring closure inferred) [SEQ ID NO 288], 0.019 nM.
Regarding cyclo([Bip(4'-COOH)][Ala(1-bicyclo(1.1.1)pentyl)][Phe(4-COOH)]G[Pro(cis-4-F)][Trp(βS-Me,4-F)][Aib]SW[d(αMeD)][4PyrimAla]Q[Dab]G[dProc3CH24Pal]) (ring closure inferred) [SEQ ID NO 284], the “MRC5 IC50” value amounted to 0.015 nM.
As for cyclo([Phe(4-(4-pyridyl))][4Pal][Phe(4-COOH)]G[Pro(cis-4-F)][Trp(βS-Me,4-F)][Aib]SW[d(αMeD)][Ala(pyrimidin-5-yl)]Q[Dab]G[dPro(3S-(4-F-Bn))]) (ring closure inferred) [SEQ ID NO 283], the figure is 0.016 nM; as for cyclo([Bip][4Pal][Phe(4-COOH)]G[Pro(cis-4-F)][1Nal(3S-Me)][Aib]SW[d(αMeD)][Ala(pyrimidin-5-yl)]Q[Dab]G[dPro(4R-(4-pyridylmethyl))]) (ring closure inferred) [SEQ ID NO 291], 0.018 nM; as for B3, 0.013 nM.
As for B4, the figure is 0.015 nM.
As for B5, the “MRC5 IC50” value worked out at 0.014 nM.
As for B6, the figure is 0.022 nM; as for cyclo([Bip][4Pal][Phe(4-COOH)]G[Pro(cis-4-F)][1Nal(3S-Me)][Aib]SW[d(αMeD)][Ala(4-THP)]Q[Dab]G[dPro(4R-(4-pyridylmethyl))]) (ring closure inferred) [SEQ ID NO 290], 0.018 nM.
For B7 the value was 0.01 nM; for B8, 0.012 nM; for cyclo([Phe4Pyrim][4Pal][Phe(4-COOH)]G[Pro(cis-4-F)][Trp(βS-Me,4-F)][Aib]SW[d(αMeD)][Ala(pyrimidin-5-yl)]Q[Dab]G[dPro(3S-(4-F-Bn))]) (ring closure inferred) [SEQ ID NO 282], 0.014 nM.
As for B9, the figure is 0.012 nM; as for B10, 0.015 nM.
